Measured values: patent publication US10689429B2, “Double-acylated GLP-1 compounds” (Novo Nordisk A/S, priority 2014, dated 2020)
*1 amine or outer side, *2 acyl side, *3 side chain or, on linkers, in order; H or OH if unused. Where no end group is shown, it is not given here. Side-chain parts run from the residue outwards. [ ]: non-standard residue; d: D form. The star is where a group is joined. Dodecanoyl(12-OPh(4-COOH)) = O=C(O)c1ccc(OCCCCCCCCCCCC(=O)*)cc1; 9‑(3-carboxyphenoxy)nonanoyl = O=C(O)c1cccc(OCCCCCCCCC(=O)*)c1; Undecanoyl(11-OPh(4-COOH)) = O=C(O)c1ccc(OCCCCCCCCCCC(=O)*)cc1; Decanoyl(10-(4-HOOC-PhO)) = O=C(O)c1ccc(OCCCCCCCCCC(=O)*)cc1; Decanoyl(10-O(3-COOH-Ph)) = O=C(O)c1cccc(OCCCCCCCCCC(=O)*)c1; γGlu = O=C(O)[C@H](CCC(=O)[*:2])N[*:1]; C14 diacid = O=C(O)CCCCCCCCCCCCC(=O)*; AEEA = NCCOCCOCC(=O)O; Aib = CC(C)(N)C(=O)O

Assays:
human GLP-1 receptor [1] = target: T1, human GLP-1 receptor (Homo sapiens, UniProt P43220); experiment: In vitro potency, CRE luciferase reporter gene assay in BHK cells expressing the human GLP-1 receptor; assay type: cell-based; conditions: average of duplicates;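 note: firefly luciferase luminescence read after 3 h incubation at 37 °C, compounds tested in an eight-point series from 0.01 pM to 100 nM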
T1 construct: expressed in transfected cells; host or cells: membranes from BHK cells, parent line BHKTS13, clone FCW467-12A
Target sequence in this assay (P43220 24-463): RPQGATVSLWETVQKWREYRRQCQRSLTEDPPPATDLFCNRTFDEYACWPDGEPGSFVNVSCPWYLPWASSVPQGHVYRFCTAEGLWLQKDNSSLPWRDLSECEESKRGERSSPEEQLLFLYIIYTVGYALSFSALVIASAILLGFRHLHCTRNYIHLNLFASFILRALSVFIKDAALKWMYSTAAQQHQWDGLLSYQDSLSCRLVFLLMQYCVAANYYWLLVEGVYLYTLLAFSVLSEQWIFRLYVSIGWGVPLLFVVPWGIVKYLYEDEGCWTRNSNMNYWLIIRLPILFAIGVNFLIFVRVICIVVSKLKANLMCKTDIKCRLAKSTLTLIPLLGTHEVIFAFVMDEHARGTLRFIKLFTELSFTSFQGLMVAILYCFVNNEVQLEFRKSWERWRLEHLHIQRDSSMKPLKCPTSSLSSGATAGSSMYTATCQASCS

human GLP-1 receptor [2] = target: T1, human GLP-1 receptor; experiment: GLP-1 receptor binding, competitive 125I-GLP-1 SPA binding assay on isolated membranes; conditions: IC50/nM (low HSA), low HSA (max. 0.001% final assay concentration)
human GLP-1 receptor [3] = target: T2, human GLP-1 receptor (human, UniProt P43220); experiment: displacement of [125I]-GLP-1-(7-36)NH2 from membranes with human GLP-1 receptor, SPA, high HSA (2.0%)
Description: Each derivative is added in a series of concentrations to isolated membranes containing the human GLP-1 receptor and displacement of the labelled ligand is monitored. The receptor binding is reported as the concentration at which half of the labelled ligand is displaced from the receptor, the $IC50$ value.
For the receptor binding assay in the presence of low HSA (0.001%) 50 μl of the assay buffer was added to each well of an assay plate. […] For the receptor binding assay in the presence of high HSA (2.0%) 50 μl of the 8% albumin stock was added to each well of an assay plate. […] Cell membrane aliquots were thawed and diluted to their working concentration. Fifty μl were added to each well in the assay plate. […] WGA SPA beads were suspended in assay buffer at 20 mg/ml. The suspension was diluted to 10 mg/ml in assay buffer just prior to addition to the assay plate. Fifty μl were added to each well in the assay plate. […] A 25 μl aliquot was reserved for measuring total counts/well. […] The assay plate was incubated for 2 h at 30° C. […] The assay plate was centrifuged for 10 min. […] The assay plate was read in a Packard TopCount NXT instrument.

human GLP-1 receptor [4] = target: T2, human GLP-1 receptor
Target sequence in this assay (P43220 24-463): as above

[5] = EC50/pM (1% HSA), 1% HSA final assay concentration

Molecule	EC50 (human GLP-1 receptor [1]; EC50/pM (0% HSA), 0% HSA) [pM]	EC50 (human GLP-1 receptor [1]; [5]) [pM]	IC50 (human GLP-1 receptor [2]) [nM]	IC50 (human GLP-1 receptor [3]) [nM]	EC50/pM (0% HSA) (human GLP-1 receptor [4]) [pM]	EC50/pM (1% HSA) (human GLP-1 receptor [4]) [pM]
CC[C@H](C)[C@H](NC(=O)[C@H](Cc1ccccc1)NC(=O)[C@H](CCC(=O)O)NC(=O)[C@H](CCCNC(=N)N)NC(=O)[C@H](C)NC(=O)[C@H](C)NC(=O)[C@H](CCC(N)=O)NC(=O)[C@H](CCC(=O)O)NC(=O)[C@H](CCC(=O)O)NC(=O)[C@H](CC(C)C)NC(=O)[C@H](Cc1ccc(O)cc1)NC(=O)[C@H](CO)NC(=O)[C@H](CO)NC(=O)[C@@H](NC(=O)[C@H](CC(=O)O)NC(=O)[C@H](CO)NC(=O)[C@@H](NC(=O)[C@H](Cc1ccccc1)NC(=O)[C@@H](NC(=O)CNC(=O)[C@H](CCC(=O)O)NC(=O)C(C)(C)NC(=O)[C@@H](N)Cc1c[nH]cn1)[C@@H](C)O)[C@@H](C)O)C(C)C)C(=O)N[C@@H](C)C(=O)N[C@@H](Cc1c[nH]c2ccccc12)C(=O)N[C@@H](CC(C)C)C(=O)N[C@H](C(=O)N[C@@H](CCCNC(=N)N)C(=O)NCC(=O)N[C@@H](CCCCNC(=O)COCCOCCNC(=O)COCCOCCNC(=O)CC[C@H](NC(=O)CCCCCCCCOc1cccc(C(=O)O)c1)C(=O)O)C(=O)N[C@@H](CCCCNC(=O)COCCOCCNC(=O)COCCOCCNC(=O)CC[C@H](NC(=O)CCCCCCCCOc1cccc(C(=O)O)c1)C(=O)O)C(=O)O)C(C)C [Example 23, N{Epsilon-36}-[2-[2-[2-[[2-[2-[2-[[(4S)-4-carboxy-4-[9-(3-carboxyphenoxy)nonanoylamino]butanoyl]amino]ethoxy]ethoxy]acetyl]amino]ethoxy]ethoxy]acetyl], N{Epsilon-37}-[2-[2-[2-[[2-[2-[2-[[(4S)-4-carboxy-4-[9-(3-carboxyphenoxy)nonanoylamino]butanoyl]amino]ethoxy]ethoxy]acetyl]amino]ethoxy]ethoxy]acetyl]-[Aib8,Glu22,Arg26,Arg34,Lys36,Lys37]-GLP-1-(7-37)-peptide]	7.7	15	0.29	–	–	–
CC[C@H](C)[C@H](NC(=O)[C@H](Cc1ccccc1)NC(=O)[C@H](CCC(=O)O)NC(=O)[C@H](CCCNC(=N)N)NC(=O)[C@H](C)NC(=O)[C@H](C)NC(=O)[C@H](CCC(N)=O)NC(=O)[C@H](CCC(=O)O)NC(=O)[C@H](CCC(=O)O)NC(=O)[C@H](CC(C)C)NC(=O)[C@H](Cc1ccc(O)cc1)NC(=O)[C@H](CO)NC(=O)[C@H](CO)NC(=O)[C@@H](NC(=O)[C@H](CC(=O)O)NC(=O)[C@H](CO)NC(=O)[C@@H](NC(=O)[C@H](Cc1ccccc1)NC(=O)[C@@H](NC(=O)CNC(=O)[C@H](CCC(=O)O)NC(=O)C(C)(C)NC(=O)[C@@H](N)Cc1c[nH]cn1)[C@@H](C)O)[C@@H](C)O)C(C)C)C(=O)N[C@@H](C)C(=O)N[C@@H](Cc1c[nH]c2ccccc12)C(=O)N[C@@H](CC(C)C)C(=O)N[C@H](C(=O)N[C@@H](CCCNC(=N)N)C(=O)NCC(=O)N[C@@H](CCCCNC(=O)COCCOCCNC(=O)COCCOCCNC(=O)COCCOCCNC(=O)COCCOCCNC(=O)CC[C@H](NC(=O)CCCCCCCCCOc1cccc(C(=O)O)c1)C(=O)O)C(=O)N[C@@H](CCCCNC(=O)COCCOCCNC(=O)COCCOCCNC(=O)COCCOCCNC(=O)COCCOCCNC(=O)CC[C@H](NC(=O)CCCCCCCCCOc1cccc(C(=O)O)c1)C(=O)O)C(=O)O)C(C)C [Example 22]	1.8	7.7	–	–	–	–
CC[C@H](C)[C@H](NC(=O)[C@H](Cc1ccccc1)NC(=O)[C@H](CCC(=O)O)NC(=O)[C@H](CCCNC(=N)N)NC(=O)[C@H](C)NC(=O)[C@H](C)NC(=O)[C@H](CCC(N)=O)NC(=O)[C@H](CCC(=O)O)NC(=O)[C@H](CCC(=O)O)NC(=O)[C@H](CC(C)C)NC(=O)[C@H](Cc1ccc(O)cc1)NC(=O)[C@H](CO)NC(=O)[C@H](CO)NC(=O)[C@@H](NC(=O)[C@H](CC(=O)O)NC(=O)[C@H](CO)NC(=O)[C@@H](NC(=O)[C@H](Cc1ccccc1)NC(=O)[C@@H](NC(=O)CNC(=O)[C@H](CCC(=O)O)NC(=O)C(C)(C)NC(=O)[C@@H](N)Cc1c[nH]cn1)[C@@H](C)O)[C@@H](C)O)C(C)C)C(=O)N[C@@H](C)C(=O)N[C@@H](Cc1c[nH]c2ccccc12)C(=O)N[C@@H](CC(C)C)C(=O)N[C@H](C(=O)N[C@@H](CCCNC(=N)N)C(=O)NCC(=O)N[C@@H](CCCCNC(=O)COCCOCCNC(=O)COCCOCCNC(=O)CC[C@H](NC(=O)CC[C@H](NC(=O)CCCCCCCCCCOc1ccc(C(=O)O)cc1)C(=O)O)C(=O)O)C(=O)N[C@@H](CCCCNC(=O)COCCOCCNC(=O)COCCOCCNC(=O)CC[C@H](NC(=O)CC[C@H](NC(=O)CCCCCCCCCCOc1ccc(C(=O)O)cc1)C(=O)O)C(=O)O)C(=O)O)C(C)C [Example 18]	–	29	–	–	–	–
CC[C@H](C)[C@H](NC(=O)[C@H](Cc1ccccc1)NC(=O)[C@H](CCC(=O)O)NC(=O)[C@H](CCCNC(=N)N)NC(=O)[C@H](C)NC(=O)[C@H](C)NC(=O)[C@H](CCC(N)=O)NC(=O)[C@H](CCC(=O)O)NC(=O)[C@H](CCC(=O)O)NC(=O)[C@H](CC(C)C)NC(=O)[C@H](Cc1ccc(O)cc1)NC(=O)[C@H](CO)NC(=O)[C@H](CO)NC(=O)[C@@H](NC(=O)[C@H](CC(=O)O)NC(=O)[C@H](CO)NC(=O)[C@@H](NC(=O)[C@H](Cc1ccccc1)NC(=O)[C@@H](NC(=O)CNC(=O)[C@H](CCC(=O)O)NC(=O)C(C)(C)NC(=O)[C@@H](N)Cc1c[nH]cn1)[C@@H](C)O)[C@@H](C)O)C(C)C)C(=O)N[C@@H](C)C(=O)N[C@@H](Cc1c[nH]c2ccccc12)C(=O)N[C@@H](CC(C)C)C(=O)N[C@H](C(=O)N[C@@H](CCCNC(=N)N)C(=O)NCC(=O)N[C@@H](CCCCNC(=O)COCCOCCNC(=O)COCCOCCNC(=O)CC[C@H](NC(=O)CCCCCCCCCCCOc1ccc(C(=O)O)cc1)C(=O)O)C(=O)N[C@@H](CCCCNC(=O)COCCOCCNC(=O)COCCOCCNC(=O)CC[C@H](NC(=O)CCCCCCCCCCCOc1ccc(C(=O)O)cc1)C(=O)O)C(=O)O)C(C)C [Example 26, N{Epsilon-36}-[2-[2-[2-[[2-[2-[2-[[(4S)-4-carboxy-4-[12-(4-carboxyphenoxy)dodecanoylamino]butanoyl]amino]ethoxy]ethoxy]acetyl]amino]ethoxy]ethoxy]acetyl], N{Epsilon-37}-[2-[2-[2-[[2-[2-[2-[[(4S)-4-carboxy-4-[12-(4-carboxyphenoxy)dodecanoylamino]butanoyl]amino]ethoxy]ethoxy]acetyl]amino]ethoxy]ethoxy]acetyl]-[Aib8,Glu22,Arg26,Arg34,Lys36,Lys37]-GLP-1-(7-37)-peptide]	1.5	124	0.29	–	–	–
H[Aib]EGTFTSDVSSYLEEQAAREFIEWLVRGK([AEEA-AEEA-AEEA-AEEA-γGlu-Decanoyl(10-O(3-COOH-Ph))])K([AEEA-AEEA-AEEA-AEEA-γGlu-Decanoyl(10-O(3-COOH-Ph))]) [GLP-1 derivative of Example 28]	–	–	–	173	12	25
H[Aib]EGTFTSDVSSYLEEQAAREFIAWLVRGK([AEEA-AEEA-AEEA-AEEA-γGlu-Decanoyl(10-O(3-COOH-Ph))])K([AEEA-AEEA-AEEA-AEEA-γGlu-Decanoyl(10-O(3-COOH-Ph))]) [GLP-1 derivative of Example 22]	–	–	–	45	1.8	7.7
H[Aib]EGTFTSDVSSYLEEQAAREFIAWLVRGK([AEEA-AEEA-γGlu-Decanoyl(10-(4-HOOC-PhO))])K([AEEA-AEEA-γGlu-Decanoyl(10-(4-HOOC-PhO))]) [GLP-1 derivative of Example 3]	–	–	–	77	1.2	28
H[Aib]EGTFTSDVSSYLEEQAAREFIAWLVRGK([AEEA-AEEA-γGlu-9‑(3-carboxyphenoxy)nonanoyl])K([AEEA-AEEA-γGlu-9‑(3-carboxyphenoxy)nonanoyl]) [GLP-1 derivative of Example 23]	–	–	–	193	7.7	15
H[Aib]EGTFTSDVSSYLEEQAAREFIAWLVRGK([AEEA-γGlu-γGlu-C14 diacid])K([AEEA-γGlu-γGlu-C14 diacid]) [GLP-1 derivative of Example 13]	–	–	–	201	1.3	18
H[Aib]EGTFTSDVSSYLEEQAAREFIAWLVQGK([AEEA-AEEA-γGlu-Undecanoyl(11-OPh(4-COOH))])K([AEEA-AEEA-γGlu-Undecanoyl(11-OPh(4-COOH))]) [GLP-1 derivative of Example 7]	–	–	–	233	1.5	143
H[Aib]EGTFTSDVSSYLEEQAAREFIAWLVRGK([AEEA-AEEA-AEEA-γGlu-C14 diacid])K([AEEA-AEEA-AEEA-γGlu-C14 diacid]) [GLP-1 derivative of Example 12]	–	–	–	70	1.2	10
H[Aib]EGTFTSDVSSYLEEQAAREFIAWLVRGK([AEEA-AEEA-γGlu-Dodecanoyl(12-OPh(4-COOH))])K([AEEA-AEEA-γGlu-Dodecanoyl(12-OPh(4-COOH))]) [GLP-1 derivative of Example 26]	–	–	–	360	1.5	124
H[Aib]EGTFTSDVSSYLEEQAAREFIAWLVRGK([AEEA-AEEA-γGlu-C14 diacid])K([AEEA-AEEA-γGlu-C14 diacid]) [GLP-1 derivative of Example 5]	–	–	–	144	1.1	22
